Results as given in the supplement of paper PMC10567573.

B1: KIAA0774 (parent)
chain: FEDEVKRLGWQQQAELQELEERLQ

Variants of: B1
Experiment: protein stability index of a GFP-peptide fusion (GPS, HEK-293T) (PSI 1-6); higher = more stable
Details: c terminus: a fixed tail appended
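Further: lentivirally expressed fusions sorted by FACS into six bins by GFP to DsRed ratio, PSI derived from sequencing read proportions per bin multiplied by bin number.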

| Variant | protein stability index |
| --- | --- |
| FEDEVNRLGWQQQAELQELEERLQ [K6N] | 4.16 |
| FEDEVERLGWQQQAELQELEERLQ [K6E] | 4.67 |
| FEDEVRRLGWQQQAELQELEERLQ [K6R] | 4.03 |
| FEDEVTRLGWQQQAELQELEERLQ [K6T] | 4.31 |
| FEDEVSRLGWQQQAELQELEERLQ [K6S] | 4.47 |
| FEDEVGRLGWQQQAELQELEERLQ [K6G] | 4.5 |
| FEDEVLRLGWQQQAELQELEERLQ [K6L] | 4.12 |
| FEDEVWRLGWQQQAELQELEERLQ [K6W] | 3.89 |
| FEDEVQRLGWQQQAELQELEERLQ [K6Q] | 4.07 |
| FEDEVFRLGWQQQAELQELEERLQ [K6F] | 4.38 |
| FEDEVMRLGWQQQAELQELEERLQ [K6M] | 4.17 |
| FEDEVYRLGWQQQAELQELEERLQ [K6Y] | 4.4 |
| FEDEVVRLGWQQQAELQELEERLQ [K6V] | 4.52 |
| FEDEVIRLGWQQQAELQELEERLQ [K6I] | 3.39 |
| FEDEVPRLGWQQQAELQELEERLQ [K6P] | 4.48 |
| FEDEVHRLGWQQQAELQELEERLQ [K6H] | 4.14 |
| FEDEVKRLGYQQQAELQELEERLQ [W10Y] | 4.86 |
| FEDEVKRLGSQQQAELQELEERLQ [W10S] | 4.84 |
| FEDEVKRLGGQQQAELQELEERLQ [W10G] | 5.07 |
| FEDEVKRLGTQQQAELQELEERLQ [W10T] | 5.13 |
| FEDEVKRLGFQQQAELQELEERLQ [W10F] | 4.41 |
| FEDEVKRLGAQQQAELQELEERLQ [W10A] | 5.49 |
| FEDEVKRLGQQQQAELQELEERLQ [W10Q] | 5.71 |
| FEDEVKRLGNQQQAELQELEERLQ [W10N] | 5.54 |

| Variant | protein stability index |
| --- | --- |
| FEDEVKRLGPQQQAELQELEERLQ [W10P] | 5.11 |
| FEDEVKRLGEQQQAELQELEERLQ [W10E] | 5.57 |
| FEDEVKRLGRQQQAELQELEERLQ [W10R] | 5.5 |
| FEDEVKRLGDQQQAELQELEERLQ [W10D] | 5.8 |
| FEDEVKRLGIQQQAELQELEERLQ [W10I] | 4.66 |
| FEDEVKRLGHQQQAELQELEERLQ [W10H] | 5.09 |
| FEDEVKRLGLQQQAELQELEERLQ [W10L] | 5.35 |
| FEDEVKRLGVQQQAELQELEERLQ [W10V] | 4.69 |
| FEDEVKRLGKQQQAELQELEERLQ [W10K] | 5.13 |
| FEDEVKRLGCQQQAELQELEERLQ [W10C] | 4.97 |
| FEDEVKRLGMQQQAELQELEERLQ [W10M] | 5.65 |
| FEDEVKWLGWQQQAELQELEERLQ [R7W] | 4.03 |
| FEDEVKDLGWQQQAELQELEERLQ [R7D] | 4.89 |
| FEDEVKCLGWQQQAELQELEERLQ [R7C] | 4.61 |
| FEDEVKLLGWQQQAELQELEERLQ [R7L] | 3.68 |
| FEDEVKTLGWQQQAELQELEERLQ [R7T] | 4.45 |
| FEDEVKNLGWQQQAELQELEERLQ [R7N] | 4.12 |
| FEDEVKMLGWQQQAELQELEERLQ [R7M] | 4.41 |
| FEDEVKSLGWQQQAELQELEERLQ [R7S] | 4.65 |
| FEDEVKQLGWQQQAELQELEERLQ [R7Q] | 4.79 |
| FEDEVKYLGWQQQAELQELEERLQ [R7Y] | 4.21 |
| FEDEVKHLGWQQQAELQELEERLQ [R7H] | 4.04 |
| FEDEVKPLGWQQQAELQELEERLQ [R7P] | 4.19 |
| FEDEVKGLGWQQQAELQELEERLQ [R7G] | 4.9 |

| Variant | protein stability index |
| --- | --- |
| FEDEVKALGWQQQAELQELEERLQ [R7A] | 4.65 |
| FEDEVKKLGWQQQAELQELEERLQ [R7K] | 3.32 |
| FEDEVKFLGWQQQAELQELEERLQ [R7F] | 4.32 |
| FEDEVKVLGWQQQAELQELEERLQ [R7V] | 3.9 |
| FEDEVKELGWQQQAELQELEERLQ [R7E] | 4.53 |
| FEDEVKILGWQQQAELQELEERLQ [R7I] | 3.67 |
| FEDEVKRLEWQQQAELQELEERLQ [G9E] | 4.63 |
| FEDEVKRLHWQQQAELQELEERLQ [G9H] | 4.11 |
| FEDEVKRLSWQQQAELQELEERLQ [G9S] | 1.91 |
| FEDEVKRLIWQQQAELQELEERLQ [G9I] | 3.73 |
| FEDEVKRLWWQQQAELQELEERLQ [G9W] | 3.54 |
| FEDEVKRLVWQQQAELQELEERLQ [G9V] | 4.02 |
| FEDEVKRLCWQQQAELQELEERLQ [G9C] | 3.36 |
| FEDEVKRLQWQQQAELQELEERLQ [G9Q] | 3.83 |
| FEDEVKRLYWQQQAELQELEERLQ [G9Y] | 4.13 |
| FEDEVKRLFWQQQAELQELEERLQ [G9F] | 3.96 |
| FEDEVKRLKWQQQAELQELEERLQ [G9K] | 3.23 |
| FEDEVKRLRWQQQAELQELEERLQ [G9R] | 3.75 |
| FEDEVKRLAWQQQAELQELEERLQ [G9A] | 3.83 |
| FEDEVKRLNWQQQAELQELEERLQ [G9N] | 2.62 |
| FEDEVKRLPWQQQAELQELEERLQ [G9P] | 4.17 |
| FEDEVKRLTWQQQAELQELEERLQ [G9T] | 2.04 |
| FEDEVKRLLWQQQAELQELEERLQ [G9L] | 3.15 |
| FEDEVKRLDWQQQAELQELEERLQ [G9D] | 3.9 |

| Variant | protein stability index |
| --- | --- |
| FEDEVKRLMWQQQAELQELEERLQ [G9M] | 3.13 |
| FEDEVKRKGWQQQAELQELEERLQ [L8K] | 3.57 |
| FEDEVKRSGWQQQAELQELEERLQ [L8S] | 3.88 |
| FEDEVKRFGWQQQAELQELEERLQ [L8F] | 3.98 |
| FEDEVKRYGWQQQAELQELEERLQ [L8Y] | 3.72 |
| FEDEVKRAGWQQQAELQELEERLQ [L8A] | 3.66 |
| FEDEVKRDGWQQQAELQELEERLQ [L8D] | 4.77 |
| FEDEVKRNGWQQQAELQELEERLQ [L8N] | 3.48 |
| FEDEVKRMGWQQQAELQELEERLQ [L8M] | 2.83 |
| FEDEVKRGGWQQQAELQELEERLQ [L8G] | 3.42 |
| FEDEVKRPGWQQQAELQELEERLQ [L8P] | 4.45 |
| FEDEVKRRGWQQQAELQELEERLQ [L8R] | 4.05 |
| FEDEVKRHGWQQQAELQELEERLQ [L8H] | 3.79 |
| FEDEVKRTGWQQQAELQELEERLQ [L8T] | 3.93 |
| FEDEVKRQGWQQQAELQELEERLQ [L8Q] | 4.48 |
| FEDEVKRIGWQQQAELQELEERLQ [L8I] | 3.86 |
| FEDEVKRVGWQQQAELQELEERLQ [L8V] | 4.25 |
| FEDEVKRWGWQQQAELQELEERLQ [L8W] | 3.4 |
| FEDEVKREGWQQQAELQELEERLQ [L8E] | 4.52 |
| FEDEVKRLGWAQQAELQELEERLQ [Q11A] | 3.64 |
| FEDEVKRLGWCQQAELQELEERLQ [Q11C] | 3.86 |
| FEDEVKRLGWDQQAELQELEERLQ [Q11D] | 5.16 |
